Test results: patent publication US20240116985A1 (published 2024)
Starred links: 1 amine or outer side, 2 acyl side, 3 side chain; linkers in the order of their positions; H or OH if unused. Positions of bridges follow the written chain, without caps; N, C: chain ends. Non-standard residues stand in square brackets, D forms with d. Primed or numbered codes have the meaning given here. B5(10) = 2-amino-2-(pent-4-en-1-yl)hept-6-enoic acid, bis(4-pentenyl)glycine, stitching residue bearing both staples, C=CCCCC(CCCC=C)(N[*:1])C(=O)[*:2]; B5(4) = 2,2-bis(4-pentenyl)glycine = 2-amino-2-(pent-4-en-1-yl)hept-6-enoic acid (stitching residue), C=CCCCC(CCCC=C)(N[*:1])C(=O)[*:2]; B5(5) = 2,2-bis(4-pentenyl)glycine, 2-amino-2-(pent-4-en-1-yl)hept-6-enoic acid (stitching residue), C=CCCCC(CCCC=C)(N[*:1])C(=O)[*:2]; PyrS(3) = (S)-1-((allyloxy)carbonyl)-3-aminopyrrolidine-3-carboxylic acid, stapling residue, C=CCOC(=O)N1CC[C@@](N[*:1])(C(=O)[*:2])C1; B5(33) = 2-amino-2-(pent-4-en-1-yl)hept-6-enoic acid (bis-pentenylglycine, two olefin side chains), C=CCCCC(CCCC=C)(N[*:1])C(=O)[*:2]; PyrS″ = (S)-1-((allyloxy)carbonyl)-3-aminopyrrolidine-3-carboxylic acid (stapling residue), C=CCOC(=O)N1CC[C@@](N[*:1])(C(=O)[*:2])C1; SeN = (S)-5-(((allyloxy)carbonyl)(methyl)amino)-2-amino-2-methylpentanoic acid, C=CCOC(=O)N(C)CCC[C@](C)(N[*:1])C(=O)[*:2]; B5(3) = 2,2-bis(4-pentenyl)glycine (stitching residue), C=CCCCC(CCCC=C)(N[*:1])C(=O)[*:2]; Phe(3-CF3) = N[C@@H](Cc1cccc(C(F)(F)F)c1)C(=O)O; Phe(4-CF3) = N[C@@H](Cc1ccc(C(F)(F)F)cc1)C(=O)O; 1Nal = N[C@@H](Cc1cccc2ccccc12)C(=O)O; 2Nal = N[C@@H](Cc1ccc2ccccc2c1)C(=O)O; hTyr = N[C@@H](CCc1ccc(O)cc1)C(=O)O; αAllylPro = C=CC[C@@]1(C(=O)O)CCCN1; hPhe = N[C@@H](CCc1ccccc1)C(=O)O; 2Pal = N[C@@H](Cc1ccccn1)C(=O)O; R8 = C=CCCCCCC[C@@](C)(N)C(=O)O; S8 = C=CCCCCCC[C@](C)(N)C(=O)O

T1: full-length beta-Catenin (Uniprot ID P35222) (Homo sapiens (Human), UniProt P35222 2-781)
T1 construct: also called B-Catenin; bCat
T1 sequence: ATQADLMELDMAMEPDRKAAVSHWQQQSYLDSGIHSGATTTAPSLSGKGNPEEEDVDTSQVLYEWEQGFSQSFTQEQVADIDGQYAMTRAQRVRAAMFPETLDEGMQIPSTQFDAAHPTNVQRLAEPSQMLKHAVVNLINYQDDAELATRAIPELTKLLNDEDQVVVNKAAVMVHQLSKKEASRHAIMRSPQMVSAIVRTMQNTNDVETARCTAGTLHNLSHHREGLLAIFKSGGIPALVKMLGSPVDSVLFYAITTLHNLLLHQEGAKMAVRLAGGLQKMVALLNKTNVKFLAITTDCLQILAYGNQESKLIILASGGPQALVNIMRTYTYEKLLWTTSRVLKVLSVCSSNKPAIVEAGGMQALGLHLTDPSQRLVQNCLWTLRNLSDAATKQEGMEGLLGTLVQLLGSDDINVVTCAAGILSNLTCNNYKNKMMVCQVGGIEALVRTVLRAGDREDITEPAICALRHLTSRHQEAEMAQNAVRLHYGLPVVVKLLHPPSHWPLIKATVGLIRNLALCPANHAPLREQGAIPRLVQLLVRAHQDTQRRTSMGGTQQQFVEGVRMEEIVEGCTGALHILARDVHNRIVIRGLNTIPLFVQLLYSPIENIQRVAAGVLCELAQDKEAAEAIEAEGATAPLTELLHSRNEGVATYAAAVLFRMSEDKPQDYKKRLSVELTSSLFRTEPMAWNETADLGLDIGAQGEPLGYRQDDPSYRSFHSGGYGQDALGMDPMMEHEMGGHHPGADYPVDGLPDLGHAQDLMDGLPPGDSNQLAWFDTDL

T2: full-length beta-Catenin (Uniprot ID P35222) (Homo sapiens (Human), UniProt P35222 2-781)
T2 construct: The AlphaScreen assay used a Histidine (Nickel Chelate) detection kit, so a His tag is likely, but no tag is described; also called B-Catenin; bCat
T2 sequence: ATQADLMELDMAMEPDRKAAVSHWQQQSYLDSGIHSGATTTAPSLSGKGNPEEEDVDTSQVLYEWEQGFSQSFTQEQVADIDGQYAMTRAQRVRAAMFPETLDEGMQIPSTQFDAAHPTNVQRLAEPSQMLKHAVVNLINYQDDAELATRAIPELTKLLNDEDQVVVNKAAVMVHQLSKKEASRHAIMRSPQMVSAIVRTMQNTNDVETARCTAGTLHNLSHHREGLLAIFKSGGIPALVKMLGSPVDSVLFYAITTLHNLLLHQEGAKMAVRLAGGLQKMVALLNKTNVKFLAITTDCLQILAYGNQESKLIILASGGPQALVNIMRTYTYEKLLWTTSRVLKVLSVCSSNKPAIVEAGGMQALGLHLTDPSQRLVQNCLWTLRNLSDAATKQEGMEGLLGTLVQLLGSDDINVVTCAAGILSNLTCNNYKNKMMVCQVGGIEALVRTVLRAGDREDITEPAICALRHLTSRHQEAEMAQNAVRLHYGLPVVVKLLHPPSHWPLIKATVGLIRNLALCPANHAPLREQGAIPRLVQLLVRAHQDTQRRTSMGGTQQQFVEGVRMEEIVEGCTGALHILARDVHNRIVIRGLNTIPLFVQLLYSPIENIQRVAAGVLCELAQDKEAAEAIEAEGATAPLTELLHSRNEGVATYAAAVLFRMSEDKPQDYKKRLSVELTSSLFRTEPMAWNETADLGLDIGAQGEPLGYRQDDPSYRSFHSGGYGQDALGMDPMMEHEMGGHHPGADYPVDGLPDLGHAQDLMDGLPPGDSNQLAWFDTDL

B1: I-128 (peptide)
peptide: Ac-[αAllylPro]DA[B5(10)]DEAAFV[S8]FW-NH2
modifications: staple 1-4, 4-11
notes: Stitched (two-staple) peptide composition
B2: I-124 (peptide)
peptide: XDAXDNAAFVXFWQ
modifications: not fully specified; as printed: Ac-PL3-Asp-Ala-B5-Asp-Asn-Ala-Ala-Phe-Val-S8-Phe-Trp-Gln-NH2; staples PL3(1)-B5(4) and B5(4)-S8(11)
notes: as for B1
B3: I-126 (peptide)
peptide: Ac-[αAllylPro]DA[B5(33)]DQAAFV[S8]FWQ-NH2
modifications: staple 1-4, 4-11
notes: as for B1
B4: I-130 (peptide)
peptide: Ac-[αAllylPro]DA[B5(4)]DEAAFV[SeN]FWQ-NH2
modifications: staple 1-4, 4-11
notes: as for B1
B5: I-119 (peptide)
peptide: Ac-FDA[R8]DDAA[hTyr]V[PyrS(3)]FWQ-NH2
modifications: staple 4-11
notes: Stapled peptide composition; same description as I-120, separate earlier-eluting HPLC peak (staple isomer)
B6: I-236 (peptide)
peptide: Ac-[αAllylPro]DA[B5(3)]DDAA[Phe(3-CF3)]V[S8]FWQ-NH2
modifications: staple 1-4, 4-11
notes: Stapled peptide composition; also called Ac-PL3-Asp-Ala-B5-Asp-Asp-Ala-Ala-3F3MeF-Val-S8-Phe-Trp-Gln-NH2
B7: I-233 (peptide)
peptide: Ac-[αAllylPro]DA[B5(3)]DWAAFV[S8]FWQ-NH2
modifications: staple 1-4, 4-11
notes: Stapled peptide composition; also called Ac-PL3-Asp-Ala-B5-Asp-Trp-Ala-Ala-Phe-Val-S8-Phe-Trp-Gln-NH2
B8: I-247 (peptide)
peptide: Ac-[αAllylPro]DA[B5(4)]D[Phe(4-CF3)]AAFV[S8]FWQ-NH2
modifications: staple 1-4, 4-11
notes: Stapled peptide composition; also called Ac-PL3-Asp-Ala-B5-Asp-4F3MeF-Ala-Ala-Phe-Val-S8-Phe-Trp-Gln-NH2
B9: I-246 (peptide)
peptide: Ac-[αAllylPro]DA[B5(4)]D[Phe(4-CF3)]AAFV[S8]FWQ-NH2
modifications: staple 1-4, 4-11
notes: as for B8
B10: I-244 (peptide)
peptide: Ac-[αAllylPro]DA[B5(5)]D[Phe(3-CF3)]AAFV[S8]FWQ-NH2
modifications: staple 1-4, 4-11
notes: Stapled peptide composition; also called Ac-PL3-Asp-Ala-B5-Asp-3F3MeF-Ala-Ala-Phe-Val-S8-Phe-Trp-Gln-NH2
B11: I-245 (peptide)
peptide: Ac-[αAllylPro]DA[B5(4)]D[Phe(3-CF3)]AAFV[S8]FWQ-NH2
modifications: staple 1-4, 4-11
notes: as for B10
B12: I-234 (peptide)
peptide: Ac-[αAllylPro]DA[B5(3)]D[1Nal]AAFV[S8]FWQ-NH2
modifications: staple 1-4, 4-11
notes: Stapled peptide composition; also called Ac-PL3-Asp-Ala-B5-Asp-1NapA-Ala-Ala-Phe-Val-S8-Phe-Trp-Gln-NH2
B13: I-230 (peptide)
peptide: Ac-[αAllylPro]DA[B5(4)][2Pal]EAAFV[S8]FWQ-NH2
modifications: staple 1-4, 4-11; also: separate staple isomer composition
notes: Stapled peptide composition; also called Ac-PL3-Asp-Ala-B5-2pyrA-Glu-Ala-Ala-Phe-Val-S8-Phe-Trp-Gln-NH2

What follows are binders tested against T1, full-length beta-Catenin (Uniprot ID …) (assay: Alphascreen competition; biotin-TCF4(10-53) probe with full-length beta-catenin).
Procedure: (§1) Equal volume of the titrated peptide was added to the plate and incubated for 15 minutes at 20° C. Then 4 uL of donor and 4 uL acceptor beads at 10 ug/mL were added to the plate, for a 16 uL reaction pool and protected from light for 60 minutes at 20° C. prior to read. Reads were performed on a CLARIOstar plate reader (BMG Labtech) in duplicate, and data were fitted to a 1:1 binding model with hill slope using an in-house script. All provided concentrations are final concentrations.
For B1, the EC50 was 0.907 µM. For Ac-FDA[R8]D[2Nal]AAFV[PyrS″]FWQ-NH2 (staple 4-11; also: later-eluting HPLC peak (staple isomer), Stapled peptide composition) [I-116], the EC50 was 3.64 µM. For B2, the EC50 was 1.28 µM. B3 was tested, and the EC50 was 1.48 µM. Ac-FDA[R8]DDAA[hPhe]V[PyrS″]FWQ-NH2 (staple 4-11; also: earlier-eluting HPLC peak (staple isomer), Stapled peptide composition) [I-117] showed an EC50 of at least 10 µM. B4 gave an EC50 of 0.797 µM. In the case of Ac-FDA[R8]D[1Nal]AAFV[PyrS″]FWQ-NH2 (staple 4-11, Stapled peptide composition) [I-114], the EC50 is reported as 4.74 µM. Ac-FDA[R8]DDAA[hPhe]V[PyrS(3)]FWQ-NH2 (staple 4-11, Stapled peptide composition) [I-118] gave an EC50 of 4.36 µM. Ac-FDA[R8]DDAA[hTyr]V[PyrS(3)]FWQ-NH2 (staple 4-11, Stapled peptide composition) [I-120] showed an EC50 of 4.55 µM. In the case of Ac-FDA[R8]D[2Nal]AAFV[PyrS″]FWQ-NH2 (staple 4-11; also: earlier-eluting HPLC peak (staple isomer), Stapled peptide composition) [I-115], the EC50 is reported as 4.78 µM. B5 gave an EC50 of 4.94 µM.

Each binder was assayed against T2, full-length beta-Catenin (Uniprot ID …) (assay: AlphaScreen competition: full-length beta-catenin + biotin-TCF4(10-53) probe, peptide titrated).
Procedure: as §1
Binder B6 has an EC50 of 0.384 µM. B7 showed an EC50 of 5.9 µM. B8 was tested, and the EC50 was 3.97 µM. Work on B9 yielded an EC50 of 3.97 µM. For B10, the EC50 was 2.96 µM. B11 was tested, and the EC50 was 2.96 µM. Work on B12 yielded an EC50 of 7.53 µM. For B13, the EC50 was 4.61 µM.
